For this test, the target named is GST-LRRK2 WD40 G2385R (human) (UniProt Q5S007). As to the kind of experiment: affinity purification with mass spectrometry; 5 µg GST fusion protein on glutathione-Sepharose incubated with adult mouse brain lysate or crude SV fraction (LP2) (1 mg protein) 2 h at 4 °C; washes 150 mM NaCl, 2 mM EDTA, 50 mM Tris-HCl, 0.2% Triton, pH 7.4; LC-MS/MS with label-free quantification, 4 samples per condition (GST-control, GST-WD40, GST-WD40-G2385R).
GST-LRRK2 WD40 G2385R (human), sequence (Q5S007 whole entry G2385R, the tested form may be a part): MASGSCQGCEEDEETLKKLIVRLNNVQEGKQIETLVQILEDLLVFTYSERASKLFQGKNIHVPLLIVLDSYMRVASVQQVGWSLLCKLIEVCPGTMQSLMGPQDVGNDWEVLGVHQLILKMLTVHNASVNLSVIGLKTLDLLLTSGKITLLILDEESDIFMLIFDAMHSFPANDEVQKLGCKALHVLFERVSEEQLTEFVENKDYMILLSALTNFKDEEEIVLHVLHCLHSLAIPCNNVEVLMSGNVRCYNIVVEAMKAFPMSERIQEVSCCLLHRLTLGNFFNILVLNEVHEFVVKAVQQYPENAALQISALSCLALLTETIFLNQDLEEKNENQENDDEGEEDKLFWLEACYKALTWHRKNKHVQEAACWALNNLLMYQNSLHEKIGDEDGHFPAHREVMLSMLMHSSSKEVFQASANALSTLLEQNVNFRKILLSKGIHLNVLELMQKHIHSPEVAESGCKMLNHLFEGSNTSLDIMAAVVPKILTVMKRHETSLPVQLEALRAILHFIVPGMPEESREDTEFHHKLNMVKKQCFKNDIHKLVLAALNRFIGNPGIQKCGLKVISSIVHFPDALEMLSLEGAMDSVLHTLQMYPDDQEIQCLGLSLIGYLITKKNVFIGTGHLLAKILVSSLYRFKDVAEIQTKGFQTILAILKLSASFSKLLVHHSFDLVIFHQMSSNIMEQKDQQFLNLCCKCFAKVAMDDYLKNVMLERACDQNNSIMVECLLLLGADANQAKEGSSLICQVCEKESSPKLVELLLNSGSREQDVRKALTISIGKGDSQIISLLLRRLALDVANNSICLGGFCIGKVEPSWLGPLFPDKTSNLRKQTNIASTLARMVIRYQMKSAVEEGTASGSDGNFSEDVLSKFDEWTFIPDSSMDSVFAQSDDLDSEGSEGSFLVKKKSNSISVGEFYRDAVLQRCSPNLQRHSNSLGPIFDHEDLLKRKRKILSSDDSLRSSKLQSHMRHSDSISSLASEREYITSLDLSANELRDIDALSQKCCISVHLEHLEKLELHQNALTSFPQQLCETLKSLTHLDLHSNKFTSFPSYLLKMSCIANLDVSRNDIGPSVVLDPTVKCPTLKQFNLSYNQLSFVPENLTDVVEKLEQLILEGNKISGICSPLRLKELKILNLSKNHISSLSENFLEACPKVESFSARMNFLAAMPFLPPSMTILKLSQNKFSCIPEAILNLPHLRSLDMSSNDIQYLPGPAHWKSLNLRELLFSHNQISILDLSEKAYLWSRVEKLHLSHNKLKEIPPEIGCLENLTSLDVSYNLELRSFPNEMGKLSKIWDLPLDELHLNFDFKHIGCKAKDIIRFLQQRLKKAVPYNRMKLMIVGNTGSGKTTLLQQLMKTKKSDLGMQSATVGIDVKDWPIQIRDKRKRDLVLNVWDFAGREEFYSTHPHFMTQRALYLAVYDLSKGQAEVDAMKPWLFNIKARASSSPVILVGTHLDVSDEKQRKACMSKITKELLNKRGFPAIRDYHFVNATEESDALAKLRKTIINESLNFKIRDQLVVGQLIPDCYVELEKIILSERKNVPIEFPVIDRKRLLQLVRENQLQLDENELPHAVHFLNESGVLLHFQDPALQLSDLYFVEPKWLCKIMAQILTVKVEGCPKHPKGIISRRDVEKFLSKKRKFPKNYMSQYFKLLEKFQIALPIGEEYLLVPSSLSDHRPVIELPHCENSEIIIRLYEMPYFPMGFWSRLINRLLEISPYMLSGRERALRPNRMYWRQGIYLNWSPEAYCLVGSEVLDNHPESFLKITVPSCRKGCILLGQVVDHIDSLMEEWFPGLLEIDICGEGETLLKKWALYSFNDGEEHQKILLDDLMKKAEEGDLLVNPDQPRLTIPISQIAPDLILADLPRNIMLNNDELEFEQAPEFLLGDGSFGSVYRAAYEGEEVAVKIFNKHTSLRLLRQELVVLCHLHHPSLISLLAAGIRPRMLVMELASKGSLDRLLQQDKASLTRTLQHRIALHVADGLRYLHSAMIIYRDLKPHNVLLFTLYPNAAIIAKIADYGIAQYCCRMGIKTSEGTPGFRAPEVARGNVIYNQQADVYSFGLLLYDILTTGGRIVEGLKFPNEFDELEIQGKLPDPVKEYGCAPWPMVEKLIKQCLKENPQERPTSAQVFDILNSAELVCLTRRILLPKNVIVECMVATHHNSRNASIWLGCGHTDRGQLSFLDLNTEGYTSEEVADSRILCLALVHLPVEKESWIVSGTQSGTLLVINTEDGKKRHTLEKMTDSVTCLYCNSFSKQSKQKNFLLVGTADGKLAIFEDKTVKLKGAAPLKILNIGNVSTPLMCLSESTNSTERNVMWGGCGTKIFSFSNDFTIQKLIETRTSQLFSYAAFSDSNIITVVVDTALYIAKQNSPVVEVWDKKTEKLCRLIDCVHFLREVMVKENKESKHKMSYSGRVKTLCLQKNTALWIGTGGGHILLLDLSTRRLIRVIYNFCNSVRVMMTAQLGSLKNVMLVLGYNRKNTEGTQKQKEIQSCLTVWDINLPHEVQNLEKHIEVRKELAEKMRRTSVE
AP-2 complex subunit alpha-1, sequence (P17426 whole entry, one chain of several): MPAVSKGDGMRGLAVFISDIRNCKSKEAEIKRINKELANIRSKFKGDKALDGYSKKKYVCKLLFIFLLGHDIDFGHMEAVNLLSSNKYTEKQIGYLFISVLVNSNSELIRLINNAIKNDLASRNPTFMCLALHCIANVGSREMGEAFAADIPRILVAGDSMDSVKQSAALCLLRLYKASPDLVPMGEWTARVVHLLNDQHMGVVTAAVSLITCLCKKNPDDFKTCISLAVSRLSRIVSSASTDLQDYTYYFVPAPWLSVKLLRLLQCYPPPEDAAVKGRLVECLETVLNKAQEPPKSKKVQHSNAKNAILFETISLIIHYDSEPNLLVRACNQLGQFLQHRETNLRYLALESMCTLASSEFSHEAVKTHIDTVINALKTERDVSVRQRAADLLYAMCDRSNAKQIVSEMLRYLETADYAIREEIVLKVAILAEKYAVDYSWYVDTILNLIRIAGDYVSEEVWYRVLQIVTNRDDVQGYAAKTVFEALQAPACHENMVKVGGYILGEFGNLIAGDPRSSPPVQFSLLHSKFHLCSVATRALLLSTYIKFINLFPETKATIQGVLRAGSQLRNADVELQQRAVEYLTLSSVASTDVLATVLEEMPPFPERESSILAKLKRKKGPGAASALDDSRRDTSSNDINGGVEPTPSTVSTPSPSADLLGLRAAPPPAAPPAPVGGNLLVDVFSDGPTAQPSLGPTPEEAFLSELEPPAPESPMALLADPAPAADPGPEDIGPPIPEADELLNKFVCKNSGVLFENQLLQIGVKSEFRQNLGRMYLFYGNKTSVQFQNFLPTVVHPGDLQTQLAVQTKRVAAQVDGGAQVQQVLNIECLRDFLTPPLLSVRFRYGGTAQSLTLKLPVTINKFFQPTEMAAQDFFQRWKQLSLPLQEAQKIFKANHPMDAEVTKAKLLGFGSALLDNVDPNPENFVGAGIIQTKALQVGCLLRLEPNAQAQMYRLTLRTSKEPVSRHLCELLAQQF
Synapsin-2, sequence (Q64332 whole entry): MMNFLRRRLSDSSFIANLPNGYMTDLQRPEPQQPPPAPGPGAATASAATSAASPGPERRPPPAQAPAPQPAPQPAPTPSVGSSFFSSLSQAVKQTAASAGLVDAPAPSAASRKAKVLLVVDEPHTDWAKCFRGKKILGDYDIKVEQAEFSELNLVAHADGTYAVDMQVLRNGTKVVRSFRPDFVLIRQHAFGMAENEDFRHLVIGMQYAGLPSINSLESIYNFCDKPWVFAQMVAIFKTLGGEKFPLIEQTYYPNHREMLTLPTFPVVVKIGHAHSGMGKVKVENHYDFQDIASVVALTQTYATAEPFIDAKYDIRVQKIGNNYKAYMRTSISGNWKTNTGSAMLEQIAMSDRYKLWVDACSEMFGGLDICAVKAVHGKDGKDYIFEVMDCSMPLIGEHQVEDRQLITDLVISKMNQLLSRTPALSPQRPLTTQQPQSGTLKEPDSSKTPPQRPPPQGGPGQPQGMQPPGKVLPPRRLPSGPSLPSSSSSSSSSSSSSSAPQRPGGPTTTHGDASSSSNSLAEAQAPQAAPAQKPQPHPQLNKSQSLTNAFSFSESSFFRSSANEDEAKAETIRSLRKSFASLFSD
Dihydropyrimidinase-related protein 1, sequence (P97427 whole entry): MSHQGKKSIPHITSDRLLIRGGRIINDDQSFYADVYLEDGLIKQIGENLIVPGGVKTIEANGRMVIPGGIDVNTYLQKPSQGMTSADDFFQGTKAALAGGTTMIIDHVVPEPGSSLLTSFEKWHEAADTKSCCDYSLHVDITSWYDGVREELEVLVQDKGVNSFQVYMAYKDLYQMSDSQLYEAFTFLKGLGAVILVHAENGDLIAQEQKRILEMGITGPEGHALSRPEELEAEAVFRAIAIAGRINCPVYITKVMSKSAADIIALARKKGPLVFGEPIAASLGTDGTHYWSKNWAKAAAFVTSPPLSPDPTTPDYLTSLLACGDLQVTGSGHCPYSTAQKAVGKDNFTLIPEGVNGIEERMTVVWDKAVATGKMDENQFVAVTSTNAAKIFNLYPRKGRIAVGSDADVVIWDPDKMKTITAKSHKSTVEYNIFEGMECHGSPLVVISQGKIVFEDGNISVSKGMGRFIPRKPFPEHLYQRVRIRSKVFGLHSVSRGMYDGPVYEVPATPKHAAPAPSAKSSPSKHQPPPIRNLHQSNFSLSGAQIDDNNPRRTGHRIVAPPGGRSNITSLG
14-3-3 protein epsilon, sequence (P62259 whole entry): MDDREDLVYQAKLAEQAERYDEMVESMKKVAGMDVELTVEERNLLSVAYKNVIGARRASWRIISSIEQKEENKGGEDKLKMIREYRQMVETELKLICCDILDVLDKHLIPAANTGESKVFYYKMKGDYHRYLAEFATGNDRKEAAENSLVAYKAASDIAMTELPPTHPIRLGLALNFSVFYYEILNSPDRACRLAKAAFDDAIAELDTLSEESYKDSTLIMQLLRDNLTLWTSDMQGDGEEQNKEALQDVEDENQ
Consider “14-3-3 protein epsilon (from UniProt P62259 1-255) (natural protein)”, for which the G2385R/WT (ratio of abundance in G2385R versus wild-type bait) turned out to be 0.37.

Consider “AP-2 complex subunit alpha-1 (from UniProt P17426 1-977) (natural protein)”, for which the G2385R/WT (ratio of abundance in G2385R versus wild-type bait) came out at 0.44.

In the case of “Actin-related protein 2/3 complex subunit 1 A (from UniProt Q9R0Q6 1-370) (natural protein)”, the G2385R/WT (ratio of abundance in G2385R versus wild-type bait) is 0.26.

Turning to “Coronin-1A (from UniProt O89053 1-461) (natural protein)”, the G2385R/WT (ratio of abundance in G2385R versus wild-type bait) is 0.37.

Take “Dihydropyrimidinase-related protein 1 (from UniProt P97427 1-572) (natural protein)”: the G2385R/WT (ratio of abundance in G2385R versus wild-type bait) amounted to 0.42.

For the substance “Dihydropyrimidinase-related protein 4 (from UniProt O35098 1-572) (natural protein)”, the G2385R/WT (ratio of abundance in G2385R versus wild-type bait) is 0.46.

With “F-actin-capping protein subunit alpha-2 (from UniProt P47754 1-286) (natural protein)”, the G2385R/WT (ratio of abundance in G2385R versus wild-type bait) turned out to be 0.5.

For the substance “Ras-related protein Rab-1A (from UniProt P62821 1-205) (natural protein)”, the G2385R/WT (ratio of abundance in G2385R versus wild-type bait) was found to be 0.62.

On to “Synapsin-2 (from UniProt Q64332 1-586) (natural protein)”, for which the G2385R/WT (ratio of abundance in G2385R versus wild-type bait) was 0.53.

“Tubulin alpha-1A chain (from UniProt P68369 1-451) (natural protein)”: the G2385R/WT (ratio of abundance in G2385R versus wild-type bait) came to 0.49.

For the substance “Tubulin alpha-4A chain (from UniProt P68368 1-448) (natural protein)”, the G2385R/WT (ratio of abundance in G2385R versus wild-type bait) is 0.53.

Turning to “Tubulin beta-4A chain (from UniProt Q9D6F9 1-444) (natural protein)”, the G2385R/WT (ratio of abundance in G2385R versus wild-type bait) turned out to be 0.39.

As for “Tubulin beta-4B chain (from UniProt P68372 1-445) (natural protein)”, the G2385R/WT (ratio of abundance in G2385R versus wild-type bait) came to 0.49.

(Values after PMC5511190.)
